For 133 substances, amyloid nucleation score results are on record in the supplement of paper PMC12042874.

± gives the uncertainty stated by the source.

The data set is described as follows: amyloid nucleation score (Sup35N fusion, yeast selection) (log enrichment); library NNK3; higher = more nucleation; inactive = no reads after selection. The method in brief: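 Libraries of peptides of 20 random codons fused to Sup35N were expressed in psi-negative yeast and induced 24 hours with 100 μM copper sulfate. Selection was 7 days at 30°C on medium lacking adenine and uracil, and plasmid inserts were Illumina-sequenced before and after selection. Nucleation score is the DiMSum log enrichment of output over input reads, centred on the mode score of non-aggregating sequences, and sequences with under 100 input reads were left out.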
For NDFVRSADKDFGSDRFSNVV, the amyloid nucleation score result was “inactive”.
With TFPRERWDCPCKVIFRSVTP the entry was “inactive”; with GSPECPLVEV, “inactive”.
In the case of NVFIHLFTILALGFHL, the amyloid nucleation score entry is “inactive”.
As for FKCTVIGDTILPNTFSLWRF, the entry is “inactive”; as for DYSIAVGYWSFHVN, “inactive”; as for CPYSFEAAEYFRYGRVGYFT, “inactive”.
With RDTYMGREVCFNNTPERF the figure was 0.21 ± 0.77; with EVEIRWPCLKVVFLFLVH, “inactive”; with VQYFPISGDARGRQLQRI, “inactive”.
Consider NHKPLWFFDVATTGTGLNR, for which the amyloid nucleation score entry was “inactive”.
As for FFDTTYLLNSGMNVVLDAYF, the figure is 1.76 ± 0.097.
With SMRILR the entry was “inactive”; with TWVVYFVVRMCVQGSVYSMA, “inactive”; with VSLVMSQVLRHHRCLLIYYL, “inactive”.
Turning to IRLHLLLGFVV, the amyloid nucleation score result was “inactive”.
For the substance CQRGTVADAPYLQRRLGLLY, the amyloid nucleation score result was “inactive”.
Turning to NFTRC, the amyloid nucleation score entry is “inactive”.
Turning to FPLDRGYSVTGDMRMPPAVR, the amyloid nucleation score entry was “inactive”.
Take AYMVTKLVKR: the amyloid nucleation score entry is “inactive”.
ASWPNYYWSNSLILFRDKCV: the amyloid nucleation score came to 0.019 ± 0.3.
With FALSWSSNGAALLRLELTTL the figure was 0.224 ± 0.44; with RDSFTVIVSSSSPMPKLVPE, “inactive”; with IATIFGVHFRQNDDWIVALY, “inactive”.
Consider SRDFVKYISEERS, for which the amyloid nucleation score entry was “inactive”.
For the substance TDRTQ, the amyloid nucleation score entry is “inactive”.
Turning to MCNWMNNLADSGLSASSVQV, the amyloid nucleation score result was “inactive”.
As for NWGSYSMDMRSCSGINRRP, the entry is “inactive”.
As for RSICV, the entry is “inactive”; as for LCFWNGLTTIDYYSFMGLLS, 0.409 ± 0.15.
As for EDSMRYCH, the entry is “inactive”; as for PYKNI, “inactive”.
Consider RNTLARKFVIRFTIFNAWSN, for which the amyloid nucleation score amounted to 1.28 ± 0.11.
As for FCKLQYTGQS, the amyloid nucleation score result was “inactive”.
With AWVDLVLRGFKGYLTYRSLH the entry was “inactive”; with SSSVCRSLSPLILSHKRYYS, “inactive”.
With KCLLV the entry was “inactive”; with NYWIHVNVAMRVNYYRFFMF, “inactive”.
As for YREREAAR, the amyloid nucleation score result was “inactive”.
For FQMVA, the amyloid nucleation score result was “inactive”.
As for FWCIYS, the entry is “inactive”; as for SIILVYKLE, “inactive”; as for MFNSFTNWLRQDQCRTIIGS, “inactive”.
Take FYFPLYDL: the amyloid nucleation score result was “inactive”.
With WCRVIRTSGIYLGCASSGVV the entry was “inactive”; with LLSREERTAVLLCTETQ, “inactive”; with IFTTNCYISNFYNGWWDV, 2.91 ± 0.078.
As for DSFVLSTTFLSSGTSAACLG, the figure is -1.32 ± 2.5; as for MCQKQHQYQVTAIRTYMIRF, “inactive”.
As for VFETEKLSHFKCEVLDCQ, the entry is “inactive”; as for FWVVISLMSSRVTVASDDHI, “inactive”; as for KPRILFQCPIRKVLRVGVKF, “inactive”.
For AVFSKGISCGLH, the amyloid nucleation score is -0.434 ± 1.1.
With HVFIEFGKL the figure was -0.259 ± 0.42; with CRCFLPWGWLV, “inactive”.
As for SWITHSIGSDTATGYETFFN, the entry is “inactive”; as for PFSFCHLLLSKISIGWRYSL, “inactive”.
In the case of FESLHSCV, the amyloid nucleation score result is “inactive”.
As to LHITVEIWTLWK, the amyloid nucleation score result is “inactive”.
With PYMIEVLRSDVNHDCSHMKW, the amyloid nucleation score result was “inactive”.
Regarding GKDVHMKGNSKRSVWYVPQG, the amyloid nucleation score entry was “inactive”.
As for FTFRLVKNTTLNGIYFCIKR, the figure is 0.787 ± 0.18.
As for DGCSRVMFNASGAMRRKVAN, the entry is “inactive”; as for YDSRWLDGSACKNKVQFGCQ, “inactive”.
With VKHQVDCLIVVI the entry was “inactive”.
With MSVRPL, the amyloid nucleation score result was “inactive”.
With ALCRASEVIWWARVSGGCVL the entry was “inactive”; with SFSYWGKDRSRVSNL, “inactive”.
On to FSGNRSGESSVRWNQYELGV, for which the amyloid nucleation score entry is “inactive”.
With SSDGFCLVIVYVCPSWYMLV the entry was “inactive”.
As for SMSFTQFKGGGSIIITWCWP, the entry is “inactive”; as for ACFEAICGYSTLSQ, “inactive”; as for SVERFIMPC, “inactive”.
With KYVRVLHCIDLFRSSLSHIG the entry was “inactive”; with YACRMKEFYGCILSRVRVWL, “inactive”; with WCGGDYVLKNGKFALGVVGS, “inactive”.
CVMNRN: the amyloid nucleation score result was “inactive”.
With FFFTSKSLGPVTLTLISVSD the entry was “inactive”; with PTFNRAMTWYFKFLFHYAHD, “inactive”; with WLVYPC, “inactive”.
As for VRREYDWMPHHWMGTGLCKC, the entry is “inactive”; as for CVYYSRKG, 1.95 ± 0.073.
With AWVPMFFSLHMWHCNALNFC the entry was “inactive”; with SLLRDVKG, -0.487 ± 1.4; with GVDFEDQPSSQDFLYSARYL, “inactive”.
As for NSFYNWSSEKKL, the amyloid nucleation score entry was “inactive”.
On to EKLCAHCSCPKVGVELFGCV, for which the amyloid nucleation score result is “inactive”.
As to DPWDPYFNLRVSYPFKYYLS, the amyloid nucleation score result is “inactive”.
In the case of NLAYTMRGTELICTYVSILP, the amyloid nucleation score entry is “inactive”.
YVRNQVNFSLAWLLITKLTK came in with an amyloid nucleation score of 1.94 ± 0.085.
With VHVRWVVRMVSWKYLAGILL the entry was “inactive”; with VAIGYIASVLK, “inactive”.
For SSWADYSKPYSGFCQGYRVY, the amyloid nucleation score result was “inactive”.
As for WHNMSMMKSVPTYSGESHTR, the amyloid nucleation score turned out to be 0.97 ± 0.18.
As to ASSPLITRDDKAHGLEFHSY, the amyloid nucleation score result was “inactive”.
As for FTWIFRFMPIWHACDKRVFE, the figure is 1.71 ± 0.088; as for GAQAKC, “inactive”; as for DWIKFHVTDW, “inactive”.
With RWNIS the figure was 0.28 ± 0.22; with GCLVRCDFVSQCLNWDG, “inactive”; with GFSNITMCLA, “inactive”.
With LSFQAMLVR, the amyloid nucleation score result is “inactive”.
As for TVKYHGSPCVLHDLLIVERR, the amyloid nucleation score result was “inactive”.
As for SFNRGRLATLYSSLVHGRLR, the entry is “inactive”; as for FDDLSARVPLTVTLWPSHTA, “inactive”.
With VLTVVAKAWFPVFRPTWFLL the entry was “inactive”; with DGEGN, “inactive”.
Consider QFDKSNPWNSSSLMMPENGV, for which the amyloid nucleation score entry is “inactive”.
For the substance TAKSSGINDRLTQRI, the amyloid nucleation score entry was “inactive”.
In the case of FNWTN, the amyloid nucleation score result is “inactive”.
With SQLCITNSRW, the amyloid nucleation score result is “inactive”.
For the substance VKTYFTSLRFVISMGWLNNQ, the amyloid nucleation score entry is “inactive”.
As for FKLSMLA, the entry is “inactive”; as for HGFERSRSGNRSGLIDDLGC, “inactive”.
With ALFSKYIYITFNYYFMQKWL the figure was 2.54 ± 0.054; with SYTSMFPRCQKIHLRQVRIS, “inactive”.
As to FSCMTADSNSGIVRVR, the amyloid nucleation score result was “inactive”.
With VRFVLDRIACLVGVYIYFWG the entry was “inactive”.
As for DRMKATVQLDFG, the entry is “inactive”; as for MITDSGIYFAFCWDKSTVSS, “inactive”; as for QLCVISWLGR, 1.14 ± 0.15.
As for IDQCNIVGTRKNGHAL, the entry is “inactive”; as for TRVLSINRNTPANRLIGVGC, “inactive”; as for AVRCPLNMHLRGRAVVQYKG, “inactive”.
As for VWVMSSWTVRIISPTVWMLV, the amyloid nucleation score entry was “inactive”.
With GVWRLSVYT the entry was “inactive”.
With YFSLWVLSYFLEAPLSLRNN the entry was “inactive”.
As for VVILGLHRVVDRRNAKVAKL, the entry is “inactive”; as for FMVGR, “inactive”; as for MTYAVCGYSIFHKITRTRFG, “inactive”.
Take NLLKSTYSVIASCASLLDLV: the amyloid nucleation score result was “inactive”.
With SVRRQHPFN the entry was “inactive”; with MIVSQVCTRSHVMGRSLGAE, “inactive”.
